Measured values from patent US20140314784A1 (MEDLMMUNE, published 2014).
Like-named read-outs stand apart in the source and are kept apart here. Blank lines part the entries; values can stand above or below the binder they belong to.

How the values were obtained:
CCR4 = target: T1, CCR4 (human, UniProt P51679 1-360); test: FACS on CCR4 transfected CHO cells, parental cells as control
T1 construct: whole, on cells
T1 sequence (looked up): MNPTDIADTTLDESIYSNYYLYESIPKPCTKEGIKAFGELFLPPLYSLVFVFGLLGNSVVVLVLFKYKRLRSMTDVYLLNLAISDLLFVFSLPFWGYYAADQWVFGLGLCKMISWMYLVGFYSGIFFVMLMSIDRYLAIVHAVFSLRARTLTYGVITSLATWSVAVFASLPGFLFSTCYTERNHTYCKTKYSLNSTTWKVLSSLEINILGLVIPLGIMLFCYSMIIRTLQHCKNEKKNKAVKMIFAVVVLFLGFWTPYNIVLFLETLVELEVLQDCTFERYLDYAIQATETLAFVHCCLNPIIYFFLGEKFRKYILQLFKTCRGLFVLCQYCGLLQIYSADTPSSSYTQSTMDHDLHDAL
Method: (§1) CXCR4 is a GPCR, with few close homologues in the family of human GPCRs. Among these are CXCR3 and CCR4. […] The samples were analyzed on a FACS Caliber cytometer.

human CXCR4 [1] = target: T2, human CXCR4 (human, UniProt P61073 1-352); test: cell-based or functional assay
human CXCR4 [2] = target: T2, human CXCR4; test: FACS binding under antigen limiting conditions on Jurkat cells, Kinexa software fit
Method: FACS binding under antigen limiting conditions was utilized to estimate the affinities of antibodies to the CXCR4 receptor. Jurkat cells were washed in RPMI1640 medium and plated at 50,000 cells per well in duplicate for incubation with 4-fold dilution series of antibody in duplicate, ranging between 150,000 and 0.143 pM. Incubation was carried out at 4° C. overnight, followed by wash step (3 times in PBS) and staining with Goat anti-human Fc−Cy5 secondary antibody+5 μg/mL 7-Amino-Actinomycin (7AAD) for 40 minutes at 4° C. Samples were analyzed on a FACSCaliber following another round of 3 washes in PBS. […] The negative geo mean was entered into Kinexa analysis software as an estimate of antibody “depletion” under limited antigen conditions, and the equilibrium dissociation constant (KD) was estimated from the curve fit.

human CXCR4 [3] = target: T2, human CXCR4; test: FACS, hybridoma supernatant pre-incubated with human CXCR4 transfected HEK293T cells, competitor Alexa-647 SDF-1
cynomolgus monkey CXCR4 [4] = target: T3, cynomolgus monkey CXCR4 (cynomolgus monkey, UniProt Q28474 1-352); test: FMAT, hybridoma supernatant on HEK293T cells transiently overexpressing full-length cynomolgus CXCR4
T3 construct: whole, on cells; On transiently transfected HEK293T cells or endogenous on the cynomolgus T-cell line HSC-F; also called Cynomolgus CXCR4
Method: (§2) Supernatants collected from harvested cells were tested to assess the ability of the secreted antibodies to bind to HEK293T cells transiently overexpressing either full-length human, murine or cynomolgus monkey CXCR4. […] Cells diluted in PBS containing 2% FBS were seeded at a density of 3000 expressing and 15000 mock transfected cells per well in 384 well plates (Corning Costar, catalog #3712). Immediately after plating, 15 or 20 μl/well of hybridoma supernatants and 10 μl/well of secondary antibody (Goat anti-human IgG Fc Cy5, final concentration 750 ng/ml) were added and plates incubated for 3 hours at room temperature prior to reading the fluorescence on the FMAT 8200 instrument (Applied Biosystems). The product of number of positive events and fluorescence intensity was used as a measure of binding strength.

human CXCR4 [5] = target: T2, human CXCR4; test: cell-based or functional assay; remark: listed apart in the source
human CXCR3 = target: T4, human CXCR3 (human, UniProt P49682 1-368); test: FACS on human CXCR3 transfected HEK293 cells, parental cells as control
T4 construct: whole, on cells
T4 sequence (looked up): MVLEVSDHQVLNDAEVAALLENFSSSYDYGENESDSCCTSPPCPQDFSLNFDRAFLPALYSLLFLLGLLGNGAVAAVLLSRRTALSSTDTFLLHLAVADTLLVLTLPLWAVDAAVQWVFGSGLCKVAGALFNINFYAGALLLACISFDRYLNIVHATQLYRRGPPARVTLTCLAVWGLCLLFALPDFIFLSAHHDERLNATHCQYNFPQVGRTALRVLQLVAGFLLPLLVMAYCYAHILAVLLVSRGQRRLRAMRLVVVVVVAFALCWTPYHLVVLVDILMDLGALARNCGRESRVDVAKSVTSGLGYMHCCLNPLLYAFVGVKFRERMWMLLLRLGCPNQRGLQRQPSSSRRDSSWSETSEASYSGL
Method: as §1

human CXCR4 [6] = target: T2, human CXCR4; test: FMAT, hybridoma supernatant on HEK293T cells transiently overexpressing full-length human CXCR4
Method: as §2

mouse CXCR4 [7] = target: T5, mouse CXCR4 (mouse, UniProt P70658 1-359); test: FMAT, hybridoma supernatant on HEK293T cells transiently overexpressing full-length mouse CXCR4
T5 construct: Full-length murine CXCR4 on transiently transfected HEK293T cells; also native on mouse lymphocytes and the EL4 line; also called murine CXCR4
Method: as §2

mouse CXCR4 [8] = target: T5, mouse CXCR4; test: FMAT, hybridoma supernatant on HEK293T cells transiently overexpressing mouse CXCR4
Method: as §2

human CXCR4 [9] = target: T2, human CXCR4; test: cell-based or functional assay; remark: listed apart in the source
human CXCR4 [10] = target: T2, human CXCR4; test: cell-based or functional assay; remark: listed apart in the source
cynomolgus monkey CXCR4 [11] = target: T3, cynomolgus monkey CXCR4; test: FACS binding titration on HSC-F cells (cyno CXCR4), Kinexa model fit
human CXCR4 [12] = target: T2, human CXCR4; test: FACS binding titration on Namalwa cells (human CXCR4), Kinexa model fit

T3 sequence (Q28474 whole entry): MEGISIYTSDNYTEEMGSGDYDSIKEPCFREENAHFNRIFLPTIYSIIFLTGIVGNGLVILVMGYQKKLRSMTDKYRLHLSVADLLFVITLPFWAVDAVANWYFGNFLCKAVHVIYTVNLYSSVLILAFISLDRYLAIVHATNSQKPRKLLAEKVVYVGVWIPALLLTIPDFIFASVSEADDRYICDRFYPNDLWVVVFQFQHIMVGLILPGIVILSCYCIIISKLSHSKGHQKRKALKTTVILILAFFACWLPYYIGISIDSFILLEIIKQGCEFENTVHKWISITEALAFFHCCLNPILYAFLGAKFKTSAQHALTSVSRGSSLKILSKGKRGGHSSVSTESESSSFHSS
T2 sequence (P61073 whole entry): as the sequence (Q28474 whole entry) above, with I24M, H35N, R38K, K146R, S176N counted along it
T5 sequence (P70658 whole entry): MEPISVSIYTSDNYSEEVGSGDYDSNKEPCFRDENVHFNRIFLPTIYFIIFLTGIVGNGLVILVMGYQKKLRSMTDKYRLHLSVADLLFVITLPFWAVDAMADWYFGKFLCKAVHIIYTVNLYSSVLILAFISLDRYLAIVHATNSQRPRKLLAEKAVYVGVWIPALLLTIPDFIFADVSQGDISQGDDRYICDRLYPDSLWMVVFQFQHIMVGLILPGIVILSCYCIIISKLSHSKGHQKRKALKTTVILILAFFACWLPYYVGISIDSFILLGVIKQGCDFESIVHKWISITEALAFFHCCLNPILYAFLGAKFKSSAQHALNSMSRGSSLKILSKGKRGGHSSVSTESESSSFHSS

B2: 5E1 (antibody, V domains shown)
VH: EVQLLESGGGLVQPGGSLRLSCAASGFTFSSFAMNWVRQAPGKGLEWVSAISGSGGNIYYADSVRGRFTISRDNSKNTLYLQMNSLRAEDTAVYYCAKVDRNLGYYHGMDVWGQGTTVTVSS
VL: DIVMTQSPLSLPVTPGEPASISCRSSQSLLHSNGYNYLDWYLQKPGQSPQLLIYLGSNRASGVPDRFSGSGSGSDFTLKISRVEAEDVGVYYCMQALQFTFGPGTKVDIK
notes: Fully human monoclonal antibody from XenoMouse hybridoma
% Inhibition 1 hr (Jurkat chemotaxis) (human CXCR4 [1]): 70% | % Inhibition 24 hr (Jurkat chemotaxis) (human CXCR4 [1]): -20% | Kd (human CXCR4 [2]): 45 pM | % Inhibition of SDF-1 binding (human CXCR4 [3]): 1% | Count (cynomolgus monkey CXCR4 [4]): 130 | FL1 (cynomolgus monkey CXCR4 [4]): 12900 | FL1 x count (cynomolgus monkey CXCR4 [4]): 1.68e+06 | Jurkat chemotaxis inhibition IC50 pM (human CXCR4 [5]): 14200 pM | Jurkat chemotaxis inhibition IC50 (human CXCR4 [5]): 2.12 µg/mL | Count (human CXCR4 [6]): 213 | FL1 (human CXCR4 [6]): 7750 | FL1 x count (human CXCR4 [6]): 1.65e+06

B4: 6C7 IgG1TM (antibody, V domains shown)
VH: QVQLVESGGGVVQPGRSLRLSCAASGFTFSNYVMHWVRQAPGKGLEWVAVIWYDGSNKYYADSVKGRFTISRDNSKNTLSLQMNSLRAEDTAVYYCERGEGYYGSGSRYRGYYYGMDVWGQGTTVTVSS
VL: DIQMTQSPSSLSASVGDRVTITCRASQGIRTDLGWYQQKPGKAPKRLIYAASSLQSGVPSRFSGSGSGTEFTLTISSLQPEDFATYYCLQHNSYPRTFGQGTKVEIKR
notes: 6C7 variable domains on a variant IgG1 Fc (IgG1 TM); also called 6C7-TM; Anti-CXCR4 IgG1 TM
Jurkat chemotaxis inhibition IC50 (human CXCR4 [9]): 193 pM | Inhibition of pMAPK Signaling IC50 (nM), Jurkat, ELISA (human CXCR4 [10]): 3.1 nM | Kd (cynomolgus monkey CXCR4 [11]): 221 pM | Kd (human CXCR4 [12]): 768 pM

Continued, values first:

binding result (CCR4): no binding (tested: 10 and 100 ug/ml) | % Inhibition 1 hr (Jurkat chemotaxis) (human CXCR4 [1]): 98% | % Inhibition 24 hr (Jurkat chemotaxis) (human CXCR4 [1]): 76% | Kd (human CXCR4 [2]): 820 pM | % Inhibition of SDF-1 binding (human CXCR4 [3]): 42% | Count (cynomolgus monkey CXCR4 [4]): 89 | FL1 (cynomolgus monkey CXCR4 [4]): 6740 | FL1 x count (cynomolgus monkey CXCR4 [4]): 600000 | Jurkat chemotaxis inhibition IC50 pM (human CXCR4 [5]): 383 pM | Jurkat chemotaxis inhibition IC50 (human CXCR4 [5]): 0.0574 µg/mL | binding result (human CXCR3): no binding (tested: 10 and 100 ug/ml) | Count (human CXCR4 [6]): 89 | FL1 (human CXCR4 [6]): 8370 | FL1 x count (human CXCR4 [6]): 745000 | Count (mouse CXCR4 [7]): 3 | FL1 (mouse CXCR4 [7]): 954 | FL1 x count (mouse CXCR4 [7]): 2860
B1: 2A4 (antibody, V domains shown)
VH: QVQLVESGGGVVQPGRSLRLSCAASGFTFSSYGMHWVRQAPGKGLEWVAVISYDGSNKYYADSVKGRFTISRDNSKNTLYLQMNSLRAEDTAVYYCTRGGLAARRNYYYSYGTDVWGQGTTVTVSS
VL: DIQMTQSPSSLSASVGDRVTITCRASQDIRNDLGWYQQKPGKAPTRLIYAASSLQSGVPSRFSGSGSGTQFTLTISSLQPEDFATYYCLQHNSYPLTFGGGTKVQIK
notes: Fully human monoclonal antibody from XenoMouse hybridoma; also called mAb 2A4; Mab2A4

binding result (mouse CXCR4 [8]): no binding | % Inhibition 1 hr (Jurkat chemotaxis) (human CXCR4 [1]): 74% | % Inhibition 24 hr (Jurkat chemotaxis) (human CXCR4 [1]): 44% | % Inhibition of SDF-1 binding (human CXCR4 [3]): -1% | Count (cynomolgus monkey CXCR4 [4]): 106 | FL1 (cynomolgus monkey CXCR4 [4]): 7320 | FL1 x count (cynomolgus monkey CXCR4 [4]): 776000 | Jurkat chemotaxis inhibition IC50 pM (human CXCR4 [5]): 28200 pM | Jurkat chemotaxis inhibition IC50 (human CXCR4 [5]): 4.22 µg/mL | Count (human CXCR4 [6]): 233 | FL1 (human CXCR4 [6]): 8800 | FL1 x count (human CXCR4 [6]): 2.05e+06 | Count (mouse CXCR4 [7]): 72 | FL1 (mouse CXCR4 [7]): 4780 | FL1 x count (mouse CXCR4 [7]): 344000
B3: 5C9 (antibody, V domains shown)
VH: QVQLVESGGGVVQPGRSLRLSCAASGFTFSSYGLHWVRQSPGKGLEWVAVISYDGSKKYYADSVKGRFSISRDNSKNTLYLQMNSLRAEDTAVYYCARDRPSRYSSCMDVWGQGTTVTVSS
VL: QSALTQPASVSGSPGQSITISCTGTSSDVGSNNFVSWYQQHPGKAPKLMIYEVSKRPSGVSNRFSGSKSGNTASLTISGLQAEDEADYYCCSYAGSNTLVFGGGTKLTVL
notes: Fully human monoclonal antibody from XenoMouse hybridoma (lambda light chain)
